In US20140161798A1 (Merck Sharp & Dohme, published 2014):
Blank lines part the entries; values can stand above or below the molecule they belong to.

Assays:
[1] = target: Purified PCSK9 carrying a C-terminal FLAG tag (UniProt Q8NBP7); experiment: AlphaScreen PCSK9-FLAG/His-LDLR; log[antibody] ug/ml -0.55953
[2] = target: Purified PCSK9 carrying a C-terminal FLAG tag (UniProt Q8NBP7); experiment: AlphaScreen PCSK9-FLAG/His-LDLR; log[antibody] ug/ml -1.51377
[3] = target: Purified PCSK9 carrying a C-terminal FLAG tag (UniProt Q8NBP7); experiment: AlphaScreen PCSK9-FLAG/His-LDLR; log[antibody] ug/ml 1.826075
[4] = target: Purified PCSK9 carrying a C-terminal FLAG tag (UniProt Q8NBP7); experiment: AlphaScreen PCSK9-FLAG/His-LDLR; log[antibody] ug/ml -1.03665
[5] = target: Purified PCSK9 carrying a C-terminal FLAG tag (UniProt Q8NBP7); experiment: as above; remark: listed apart in the source
[6] = target: Purified PCSK9 carrying a C-terminal FLAG tag (UniProt Q8NBP7); experiment: AlphaScreen PCSK9-FLAG/His-LDLR; log[antibody] ug/ml 0.871832
[7] = target: Purified PCSK9 carrying a C-terminal FLAG tag (UniProt Q8NBP7); experiment: AlphaScreen PCSK9-FLAG/His-LDLR; log[antibody] ug/ml -0.08241
[8] = target: Purified PCSK9 carrying a C-terminal FLAG tag (UniProt Q8NBP7); experiment: AlphaScreen PCSK9-FLAG/His-LDLR; log[antibody] ug/ml -2.46802
[9] = target: Purified PCSK9 carrying a C-terminal FLAG tag (UniProt Q8NBP7); experiment: AlphaScreen PCSK9-FLAG/His-LDLR; log[antibody] ug/ml -0.55953; remark: listed apart in the source
[10] = target: Purified PCSK9 carrying a C-terminal FLAG tag (UniProt Q8NBP7); experiment: AlphaScreen PCSK9-FLAG/His-LDLR; log[antibody] ug/ml -2.46802; remark: listed apart in the source
[11] = target: Purified PCSK9 carrying a C-terminal FLAG tag (UniProt Q8NBP7); experiment: AlphaScreen PCSK9-FLAG/His-LDLR; log[antibody] ug/ml -1.9909
[12] = target: Purified PCSK9 carrying a C-terminal FLAG tag (UniProt Q8NBP7); experiment: AlphaScreen PCSK9-FLAG/His-LDLR; log[antibody] ug/ml 1.826075; remark: listed apart in the source
[13] = target: Purified PCSK9 carrying a C-terminal FLAG tag (UniProt Q8NBP7); experiment: AlphaScreen PCSK9-FLAG/His-LDLR; log[antibody] ug/ml -1.9909; remark: listed apart in the source
[14] = target: Purified PCSK9 carrying a C-terminal FLAG tag (UniProt Q8NBP7); experiment: AlphaScreen PCSK9-FLAG/His-LDLR; log[antibody] ug/ml 0.394711
[15] = target: Purified PCSK9 carrying a C-terminal FLAG tag (UniProt Q8NBP7); experiment: AlphaScreen PCSK9-FLAG/His-LDLR; log[antibody] ug/ml -2.94514
[16] = target: Purified PCSK9 carrying a C-terminal FLAG tag (UniProt Q8NBP7); experiment: AlphaScreen PCSK9-FLAG/His-LDLR; log[antibody] ug/ml 0.394711; remark: listed apart in the source
[17] = target: Purified PCSK9 carrying a C-terminal FLAG tag (UniProt Q8NBP7); experiment: AlphaScreen PCSK9-FLAG/His-LDLR; log[antibody] ug/ml 1.348954
[18] = target: Purified PCSK9 carrying a C-terminal FLAG tag (UniProt Q8NBP7); experiment: AlphaScreen PCSK9-FLAG/His-LDLR; log[antibody] ug/ml -0.08241; remark: listed apart in the source
[19] = target: Purified PCSK9 carrying a C-terminal FLAG tag (UniProt Q8NBP7); experiment: AlphaScreen PCSK9-FLAG/His-LDLR; log[antibody] ug/ml 1.348954; remark: listed apart in the source
bacu-PCSK9-WT = bacu-PCSK9-WT (UniProt Q8NBP7); experiment: cell-based or functional assay
Chain of bacu-PCSK9-WT (Q8NBP7 31-692 limits assumed): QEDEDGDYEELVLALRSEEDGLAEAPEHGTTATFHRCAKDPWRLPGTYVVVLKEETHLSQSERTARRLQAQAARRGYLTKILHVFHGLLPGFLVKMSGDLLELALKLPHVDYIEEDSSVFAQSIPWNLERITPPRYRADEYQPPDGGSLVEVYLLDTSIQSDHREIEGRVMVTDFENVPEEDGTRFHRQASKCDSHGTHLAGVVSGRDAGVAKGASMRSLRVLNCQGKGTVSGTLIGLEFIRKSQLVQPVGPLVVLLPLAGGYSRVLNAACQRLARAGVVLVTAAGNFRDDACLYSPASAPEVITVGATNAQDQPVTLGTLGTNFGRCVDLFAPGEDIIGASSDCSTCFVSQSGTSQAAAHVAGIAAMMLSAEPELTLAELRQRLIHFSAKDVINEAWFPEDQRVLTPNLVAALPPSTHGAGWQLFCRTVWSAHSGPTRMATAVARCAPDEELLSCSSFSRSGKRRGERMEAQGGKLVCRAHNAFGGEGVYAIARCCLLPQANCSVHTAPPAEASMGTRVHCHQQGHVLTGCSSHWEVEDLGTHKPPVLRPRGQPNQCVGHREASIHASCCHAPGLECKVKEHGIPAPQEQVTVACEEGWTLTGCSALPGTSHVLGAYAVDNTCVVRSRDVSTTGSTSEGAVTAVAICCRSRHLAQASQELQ

[20] = target: Purified PCSK9 carrying a C-terminal FLAG tag (UniProt Q8NBP7); experiment: AlphaScreen PCSK9-FLAG/His-LDLR; log[antibody] ug/ml 0.871832; remark: listed apart in the source
[21] = target: Purified PCSK9 carrying a C-terminal FLAG tag (UniProt Q8NBP7); experiment: AlphaScreen PCSK9-FLAG/His-LDLR; log[antibody] ug/ml -1.51377; remark: listed apart in the source
[22] = target: T1, Purified PCSK9 carrying a C-terminal FLAG tag (UniProt Q8NBP7 31-692); experiment: AlphaScreen, inhibition of PCSK9-Flag/His-tagged LDL receptor interaction; average of two measurements
T1 construct: also called PCSK9-FLAG; PCSK9-Flag; not shown: C-terminal FLAG tag
T1 sequence (Q8NBP7 31-692 limits assumed): as above
Method: This technique required that “donor” and “acceptor” beads be brought into proximity via protein—protein interaction, resulting in increased luminescence (Ullman et al., Proc. Nat. Acad. Sci. (1994) 91:5426-5430). […] About 2.5 μl of biotinylated anti-Flag-M2 antibody (1.8 μg/ml) was added and the mixture incubated for 1 hour. Afterward 5 μl of streptavidin donor bead and nickel chelate acceptor bead (1:1 mixture) was added and the assay incubated overnight. AlphaScreen signal (counts per second) was analyzed using an EnVision microplate reader (Perkin-Elmer). All data points were determined in triplicate. Assays were carried out at 23° C. in buffer containing 25 mM HEPES, 0.1 M NaCl, pH 7.4, 0.1% BSA. The inhibition assays were determined similarly with slight adjustments to assay volumes and protein concentrations.

Chain of Purified PCSK9 carrying a C-terminal FLAG tag (UniProt Q8NBP7) (Q8NBP7 31-692 limits assumed): as above

AlphaScreen mean counts [1]: 128000 counts
AlphaScreen mean counts [2]: 126000 counts
AlphaScreen mean counts [3]: 6840 counts
AlphaScreen mean counts [4]: 124000 counts
AlphaScreen mean counts [5]: 79800 counts
AlphaScreen mean counts [6]: 33300 counts
AlphaScreen mean counts [7]: 70000 counts
AlphaScreen mean counts [8]: 80600 counts
AlphaScreen mean counts [9]: 77400 counts
AlphaScreen mean counts [10]: 132000 counts
AlphaScreen mean counts [11]: 81500 counts
AlphaScreen mean counts [12]: 2100 counts
AlphaScreen mean counts [13]: 130000 counts
AlphaScreen mean counts [14]: 93500 counts
AlphaScreen mean counts [15]: 85400 counts
AlphaScreen mean counts [16]: 60100 counts
AlphaScreen mean counts [17]: 12300 counts
AlphaScreen mean counts [18]: 94800 counts
AlphaScreen mean counts [19]: 25800 counts
DiI-LDL uptake by HepG2 cells, 6 hour incubation, [PCSK9] 1.67 ug/ml, antibody 100 ug/ml (fluorescence intensity) (bacu-PCSK9-WT): 2.95e+07
DiI-LDL uptake by HepG2 cells, 6 hour incubation, [PCSK9] 5 ug/ml, antibody 100 ug/ml (fluorescence intensity) (bacu-PCSK9-WT): 2.56e+07
DiI-LDL uptake by HepG2 cells, 6 hour incubation, [PCSK9] 15 ug/ml, antibody 100 ug/ml (fluorescence intensity) (bacu-PCSK9-WT): 2.24e+07
DiI-LDL uptake by HepG2 cells, 18 hour incubation, [PCSK9] 1.67 ug/ml, antibody 100 ug/ml (fluorescence intensity) (bacu-PCSK9-WT): 3.2e+07
DiI-LDL uptake by HepG2 cells, 18 hour incubation, [PCSK9] 5 ug/ml, antibody 100 ug/ml (fluorescence intensity) (bacu-PCSK9-WT): 2.59e+07
DiI-LDL uptake by HepG2 cells, 18 hour incubation, [PCSK9] 15 ug/ml, antibody 100 ug/ml (fluorescence intensity) (bacu-PCSK9-WT): 2.18e+07
AlphaScreen mean counts [20]: 55600 counts
AlphaScreen mean counts [21]: 85600 counts
Molecule: Rabbit anti-murine-PCSK9 polyclonal antibody, Cayman Chemical Cat.#10008811 (anti-PCSK9-catalytic domain antibody)

IC50 [22]: 0.049 nM
B1: 1F11/1G11 anti-PCSK9 antibody (IgG2a) (antibody, V domains shown)
VH: EVQLQQSGPELVKPGASVKISCKVSGYTFTDYYMNWVKQSHGKSLEWIGDINPNNGGAIYNQKFKGKATLTVDKSSSIAYMELRSLTSEDSAVYYCTSGIITEIAEDFWGQGTTLTVSS
VL: DIVMTQSQKFMSTSVGDRVSVTCKASQNVGTNVVWYQQKPGQSPKALIHSASYRYSGVPDRFKGSGSGTDFTLTITNVQSEDLAGFFCQQYKTYPYTFGGGTQLEIKR
notes: also called anti-human PCSK9 Antibody, 1F11/1G11
